Data on one substance can be found in PMC3563686.

This experiment deals with His-vimentin, purified recombinant, polymerized (UniProt P08670). Description: co-sedimentation.
His-vimentin, purified recombinant, polymerized, sequence (P08670 whole entry): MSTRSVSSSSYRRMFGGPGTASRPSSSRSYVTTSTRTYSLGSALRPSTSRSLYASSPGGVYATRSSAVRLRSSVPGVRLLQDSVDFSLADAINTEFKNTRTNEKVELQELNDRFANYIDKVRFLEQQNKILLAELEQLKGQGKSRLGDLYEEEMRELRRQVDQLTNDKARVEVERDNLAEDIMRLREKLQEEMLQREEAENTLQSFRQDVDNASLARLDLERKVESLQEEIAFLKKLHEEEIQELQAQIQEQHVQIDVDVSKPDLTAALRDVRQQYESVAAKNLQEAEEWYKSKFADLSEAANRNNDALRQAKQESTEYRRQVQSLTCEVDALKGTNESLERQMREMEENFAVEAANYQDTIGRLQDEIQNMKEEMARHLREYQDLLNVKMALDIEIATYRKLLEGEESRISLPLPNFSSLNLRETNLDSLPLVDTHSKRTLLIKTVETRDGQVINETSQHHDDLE

On to “adenomatous polyposis coli (APC), endogenous in rat primary astrocytes, P70478 1-2842”, for which the percent of total APC cosedimented was 18.5%.
